Results published in PMC7010609 (2020).
Where a chain is given by its changes, count along the chain named. Numbers in names are those of the source.

T1: Xenopus laevis StrepII-FANCD2 (Xenopus laevis)
T1 chain: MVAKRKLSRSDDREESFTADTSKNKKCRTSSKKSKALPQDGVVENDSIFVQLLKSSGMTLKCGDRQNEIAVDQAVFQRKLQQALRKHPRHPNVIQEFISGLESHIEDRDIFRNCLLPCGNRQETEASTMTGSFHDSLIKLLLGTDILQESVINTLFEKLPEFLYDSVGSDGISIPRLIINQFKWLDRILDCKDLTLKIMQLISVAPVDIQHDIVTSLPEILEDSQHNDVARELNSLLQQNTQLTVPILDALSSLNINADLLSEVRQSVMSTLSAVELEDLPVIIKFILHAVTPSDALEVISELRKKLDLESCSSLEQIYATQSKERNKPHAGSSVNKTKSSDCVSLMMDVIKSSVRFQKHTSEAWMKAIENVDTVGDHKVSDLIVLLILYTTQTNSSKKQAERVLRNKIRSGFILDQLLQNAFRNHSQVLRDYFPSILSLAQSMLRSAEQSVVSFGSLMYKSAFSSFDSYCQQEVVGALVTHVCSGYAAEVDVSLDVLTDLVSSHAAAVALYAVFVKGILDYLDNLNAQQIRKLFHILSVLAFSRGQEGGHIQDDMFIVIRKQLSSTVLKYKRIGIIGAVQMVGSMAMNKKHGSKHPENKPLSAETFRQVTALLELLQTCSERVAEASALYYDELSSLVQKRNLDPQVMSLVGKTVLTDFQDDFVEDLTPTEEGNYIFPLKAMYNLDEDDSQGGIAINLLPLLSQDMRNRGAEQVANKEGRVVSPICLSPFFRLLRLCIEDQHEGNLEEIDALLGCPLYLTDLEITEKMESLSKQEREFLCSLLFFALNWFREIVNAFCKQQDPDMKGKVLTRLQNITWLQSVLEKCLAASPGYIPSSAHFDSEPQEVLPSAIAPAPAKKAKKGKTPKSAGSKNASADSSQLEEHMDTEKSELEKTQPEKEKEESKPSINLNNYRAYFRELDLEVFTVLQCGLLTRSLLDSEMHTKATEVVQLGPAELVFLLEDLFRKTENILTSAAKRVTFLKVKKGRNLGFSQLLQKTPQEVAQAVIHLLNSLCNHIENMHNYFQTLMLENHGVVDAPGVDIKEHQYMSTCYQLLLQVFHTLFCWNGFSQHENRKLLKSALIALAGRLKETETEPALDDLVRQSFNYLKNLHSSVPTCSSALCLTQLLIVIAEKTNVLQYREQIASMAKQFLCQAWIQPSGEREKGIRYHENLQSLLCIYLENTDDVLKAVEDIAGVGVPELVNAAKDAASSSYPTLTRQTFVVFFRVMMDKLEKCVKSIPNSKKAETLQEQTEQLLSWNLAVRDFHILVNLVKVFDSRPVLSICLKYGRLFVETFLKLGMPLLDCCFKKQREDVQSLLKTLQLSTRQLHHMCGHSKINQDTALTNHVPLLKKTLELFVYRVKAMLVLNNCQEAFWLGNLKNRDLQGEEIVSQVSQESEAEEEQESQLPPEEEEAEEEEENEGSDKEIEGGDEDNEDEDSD

T2: Xenopus laevis StrepII-FANCD2
T2 chain: T1 chain

B1: Xenopus laevis Flag-FANCI wild type S557A; S560A; S566A; S597A; S618A; S630A (protein)
chain: MDQKILSLAAEEQNDGLQSYLQNLKETELSEIITKHAVKGKDCGALLRGVFKGSPCSHDVAVRRRLAVYRHCIQLVESGDLQREVASEIMGLLMLEVHHFPGASLIELANLFADAVKAGTLSNGKSLDLFPTVLTALSSKESLAYGKGELTGEEFKKQLINSLCSSRWDPQSVIFLTSMFRDVSLSAEELQFVVEKVLRMLSKLDLQEMPPLVYQLLLLSAKGSKKNIVEGIITIFNDLDQKQLVQQENSESLDLEDATIPQDQLHHVEGTIILHIVFAIKLDQELGRELLKYLKAGQQGDSSKILCPFSAALLLSVSRIHRFQEQVFDFLKSTILRDYKDLQFHQSSKFLQDLVPQPVCVSSILLETVKNSVYGWDHVTQGLVELGFILMDSFGPKAAFGNKVVELISVHSRTPSQQACQLGSRILLETFKVHEPIRSEILEQVLNRVITKAATPVTHFIDLLSDIVVSAPLILQNSSSKVTEAFDHLSFLPLTTVQGLLKAVQPLLKISMSMRDSLILVLRKAMFSSQIDARKSAVAGFLLLLRNFKVLGSLSSAQCAQAIGAAQIQVDVHMRYNAAANEAFCLEILGSLRRCLAQQADVRLMLYEGFYDVLRRNAQLASSVMQTLLAQLKRYYEPEPDLLPPLKLEGCITAQGDHIFLQEPLAHLLCCIHHCLQWYKSSLQQHRNPDEDDDDDDQTGCQQDLNDIMESITRRMIKCDLEDFELDKSADFSLASGVGVKNNIYAVLVMGICEVLIEYNFIIANFSKSKFEDILGLFKCCSKLSDILKEKAAKGRQPGNNKTARSLISMTFVSTLLTALFRDSTRSHEESLSILRANVDFMRYSVCVALQKIQQLEETGVTDGPDGQNSEKMFRSLCEITRVLMWRYTSIPAAAENPGKKDKGKTISLLCLEGLLRVFNTVQQRYPSKIPQFLTALDALGDEDEEGSREINVTEKAAFQIKQFQRSLINQLSGGEDDFNSKEALLLVSILSTLSRLLAPSSQQFVQMLSWTVKICKETNIEDVQFCKGIMNLLFSLHVQFKSPVSVLRELCQDIHGHLGDIDQDIEVEKQSHFATVSLKTAAPTVTLLVLGQAAKVLEEVDWLIIKLKGLLGSEKLSTEDLTQTSNARVPIEKAIILQLGTLLTACHELVQTALPAGSCTDTLLKELAKMYTILTSVVKYYLQICSSHGGQISARLEKLVKLSGSHLTPQCYAFITYVQNIHSESLSLAAEKKKKKKEEALTVTSAKILRDTKPIPNLIFAIEQYEKFLIHLSKKSKVNLMQYMKLSTSRDFRINAATLDAALQEKGSEDEENEPDNEQAVTEEESQEPKKKRRRK
B2: Xenopus laevis Flag-FANCI wild type S557D; S560D; S566D; S597D; S618D; S630D (protein)
chain: B1 chain with A557D, A560D, A566D, A597D, A618D, A630D
B3: Xenopus laevis Flag-FANCI S6D phosphomimic mutant (natural protein)
chain: B1 chain with Y20C, S302T, D338G, A557D, A560D, A566D, A597D, A618D, A630D, C781Y
modifications: Full length assumed, since construct limits are not printed. Flag tag left out. The L homeolog is assumed; if it has no entry or the checks fail, try fanci.S or fanci. Expressed in Hi5 insect cells.

Tests used:
[1] = target: Xenopus laevis StrepII-FANCD2; assay: Biolayer interferometry (BLItz); conditions: StrepII-FANCD2-loaded biosensors in 20 ng/mL solution; FANCI 62.5-1000 nM
[2] = target: T1, Xenopus laevis StrepII-FANCD2; assay: Biolayer interferometry (BLItz); conditions: StrepII-FANCD2-loaded biosensors in 20 ng/mL solution; FANCI 62.5-1000 nM
[3] = target: T2, Xenopus laevis StrepII-FANCD2; assay: Biolayer interferometry (BLItz); conditions: chain shown with the change; StrepII-FANCD2-loaded biosensors in 20 ng/mL solution; FANCI 62.5-1000 nM
[4] = target: T1, Xenopus laevis StrepII-FANCD2; assay: BLI
[5] = target: T1, Xenopus laevis StrepII-FANCD2; assay: BLI

Row | Molecule | Kd [3] | koff [3] | also measured
1 | Xenopus laevis Flag-FANCI wild type S557D; S560D; S566D; S597D; S618D; S630D | – | – | kon [1]: 39000 M⁻¹ s⁻¹
2 | B1 | 10.1 nM | 9e-05 s⁻¹ | kon [2]: 11000 M⁻¹ s⁻¹
3 | B2 | 136 nM | 0.0061 s⁻¹ | –
4 | B3 | – | – | koff [4]: 0.0061 s⁻¹; Kd [5]: 136 nM
